From patent US20230312744A1, “Modulatory Substance of Tumor Immune Microenvironment, and Preventive, Diagnostic and/or Therapeutic Utilization of the Same” (The University Of Tokyo, priority 2020, published 2023)

What was measured:
mouse TCTP = target: T1, mouse TCTP (Mus musculus, UniProt P63028); test: Immunoblotting of whole cell lysate of TCTP WT / TCTP KO SL4 cells using the 55F3 monoclonal antibody; assay type: binding; conditions: lysate of TCTP WT vs TCTP KO SL4 cells, FIG. 12(a)
T1 construct: preparing the whole cell lysate of TCTP WT SL4 cells (WT) or TCTP KO SL4 cells (KO), followed by immunoblotting; endogenous in cells; host or cells: SL4 mouse colon carcinoma cells (TCTP WT; TCTP KO as negative control)
T1 sequence (P63028 1-172): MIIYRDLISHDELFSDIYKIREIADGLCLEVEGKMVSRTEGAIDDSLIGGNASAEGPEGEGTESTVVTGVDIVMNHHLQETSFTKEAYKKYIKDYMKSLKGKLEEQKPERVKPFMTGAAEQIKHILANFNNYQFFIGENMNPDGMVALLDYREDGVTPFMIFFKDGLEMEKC
Experimental: In FIG. 12(b), PECs (2×10^5 cells) were stimulated with a supernatant of dead SL4 cells comprising the 55F3 antibody or control IgG. After the stimulation for 2 hours, the expressed Cxcl1 mRNA was quantified by RT-qPCR. n=3, and Sup: culture supernatant. In FIG. 12(c), TCTP WT SL4 cells or TCTP KO SL4 cells ([…]) were subcutaneously transplanted into C57BL/6 mice. After the transplantation, DHA (50 mg/kg) or DMSO was intraperitoneally administered to the mice every day (n=6). In FIG. 12(d), (left view) the expression level of TCTP in the interstitial area of normal large intestinal tissues was compared with the expression level of TCTP in the interstitial area of colorectal cancer tissues. In FIG. 12(d), (right view) a normal colon crypt was compared with a neoplastic lesion. […] Spearman r: spearman correlation coefficients. *P<0.05, **P<0.01. Regarding FIG. 12(b), repeated measures one-way ANOVA with Dunnett's multiple comparisons test. Regarding FIG. 12(c), repeated measures one-way ANOVA with Tukey's multiple comparisons test. […]
Immunoblot analysis was performed according to the previous report (Inoue et al., Nature 434, 243-249, doi: 10.1038/nature03308 (2005)). β-Actin (cat# A5441) was purchased from Sigma-Aldrich. […] Immunoblotting signals were detected by FUSION Solo S (Vilber-Lourmat), and were then analyzed by FUSION Capt Advanced software (Vilber-Lourmat). […]

Cxcl1 mRNA from PECs = test: PECs stimulated with supernatant of dead SL4 cells containing antibody, Cxcl1 mRNA by RT-qPCR; assay type: cell-based, mouse; conditions: PECs stimulated 2 hours with culture supernatant of SL4 cells containing 55F3, vs control IgG, FIG. 12(b)
Experimental: In FIG. 12(b), PECs (2×10^5 cells) were stimulated with a supernatant of dead SL4 cells comprising the 55F3 antibody or control IgG. After the stimulation for 2 hours, the expressed Cxcl1 mRNA was quantified by RT-qPCR. n=3, and Sup: culture supernatant. In FIG. 12(c), TCTP WT SL4 cells or TCTP KO SL4 cells ([…]) were subcutaneously transplanted into C57BL/6 mice. After the transplantation, DHA (50 mg/kg) or DMSO was intraperitoneally administered to the mice every day (n=6). In FIG. 12(d), (left view) the expression level of TCTP in the interstitial area of normal large intestinal tissues was compared with the expression level of TCTP in the interstitial area of colorectal cancer tissues. In FIG. 12(d), (right view) a normal colon crypt was compared with a neoplastic lesion. […] Spearman r: spearman correlation coefficients. *P<0.05, **P<0.01. Regarding FIG. 12(b), repeated measures one-way ANOVA with Dunnett's multiple comparisons test. Regarding FIG. 12(c), repeated measures one-way ANOVA with Tukey's multiple comparisons test. Regarding FIG. 12(d), unpaired two-sided Student's t-test. NS indicates “no significant difference.” The data are shown as a mean value ±[…] (s.e.m.).
RAW264.7 cells, the mouse melanoma cell line B16F10 cells, the mouse fibrosarcoma cell line Meth-A cells, and HEK293T cells were obtained from RIKEN BioResource Center (Japan). […]

B1: 55F3: Mouse monoclonal antibody against human TCTP peptide SEQ ID NO: 25; CDRs SEQ ID NO: 1-6, VH SEQ ID NO: 19, VL SEQ ID NO: 22 (antibody, listed as Mus musculus)
VH: MRVLILLWLFTAFPGILSDVQLQESGPGLVKPSQSLSLTCTATGYSIASDYAWNWIRQFPGNKLEWMGYINYSGSTGYNPSLKSRISITRDTSKNQFFLQLNSVTTEDTATYYCARFEAGYWGQGTTLTVSSAKTTPPSVYPLAPGSAAQTNSMVTLGCLVKGYFPEPVT
VL: MDMRTPAQFLGILLLWFPGIKCDIKMTQSPSSMSASLGERVTITCKASQDINRYLSWFQQKPGKSPKTLIYRANRLVDGVPSRFSGSGSGQDYSLTISSLEYGDMGIYYCLQYNEFPLTFGAGTKLELKRADAAPTVSIFPPSSEQLTSGGASVVCFLN
For B1, the “species crossing property to mouse TCTP” value (mouse TCTP) was “has species crossing property to mouse TCTP” and the “expression of Cxcl1 mRNA from PECs” value (Cxcl1 mRNA from PECs) was “suppressed”.
